# Test results reported in the DeepSol protein solubility set.
# Assay: soluble on expression in E. coli; label from the status in PepcDB or PDB records
row,Sequence,soluble on expression in E. coli
1,MVAEVCSMPTASTVKKPFDLRSKMGKWCHHRFPCCRGSGKSNMGTSGDHDDSFMKMLRSKMGKCCRHCFPCCRGSGTSNVGTSGDHENSFMKMLRSKMGKWCCHCFPCCRGSSKSNVGAWGDYDHSAFMEPRYHVRREDLDKLHRAAWWGKVPRKDLIVMLRDTDMNKRDKEKRTALHLASANGNSEVVQLLLDRRCQLNVLDNKKRTALIKAVQCQEDECVLMLLEHGADRNIPDEYGNTALHYAIYNEDKLMAKALLLYGADIESKNKV,not soluble
2,MGSDKIHHHHHHEIRENLLGNYSDRVLVVSHRADWRNAPENSLQGIRNCIDMGVDMVEIDLKKTKDGHLVIMHDKTINRTMTGKGNAEDYTLAELKAMRLKNGAGCKTRHQIPTLEEVMLLCKGKIMVNIDKGYDYFQEAYAVLEKTGTIDHCVIKAGLPYERVKAENGDVLDKVIFMPIVNLHKEGAEKIINDYQSHMKPTAYELVFNDDNEEILRLIRKVRDSGAKLFINSLWPELCGGHDDDRAVELHQPDESWGWILNQGAKLIQTDRPALLLEYLRKKKLHD,not soluble
3,MDVRQSIHSEHAKTLDTQALRREFLIENIFVADEYTMVYSHIDRIIVGGIMPVSHPVEIGGEVGKQLGVSRLLDRRELGVINIGGAGAIIVDGQRHDIGHRDALYIGKGAKELVFVSNEASRPAKFYYNCAPAHTAYPTKKVSPADVAPVTLGDNLTSNRRTINKYFVPDVLETCQLSMGLTELAPGNLWNTMPCHTHERRMEVYLYFNMEEDSCVFHMMGQPQETRHIVMRNEQAVISPSWSIHSGVGTKAYTFVWGMVGENQVFDDMDHVAVQDLR,not soluble
4,MSPPLAEERLTRIVQLLAERGTLRTAALTELLGVSSATIRRDLDVLAGRGLIRKLHGGAALAAPEPEAPLNQDQFYRDRQQVNHLGKQRLAGRALELIAPGQTLYLDAGTTALALAEALQRTPQLTRTLRVVTHGIDVAYVLNGECALYVVGGEVYGSTYSLTGPDALSTVSRYNYDLFFVSCTSIDPAGRLTNSNSVEAQQKASILRQSRRSVLIADQSKWGPPGFAPFAGFAEVSAWVTDRAPATARAAFEQAGVTVLEADASARELSADLEHHHHHH,soluble
5,GSNRSLIVTTILEEPYVLFKKSDKPLYGNDRFEGYCIDLLRELSTILGFTYEIRLVEDGKYGAQDDVNGQWNGMVRELIDHKADLAVAPLAITCVREKVIDFSKPFMTLGISILYRKGTPIDSADDLAKQTKIEYGAVEDGATMTFFKKSKISTYDKMWAFMSSRRQSVLVKSNEEGIQRVLTSDYAFLMESTTIEFVTQRNCNLTQIGGLIDSKGYGVGTPMGSPYRDKITIAICQLQEEGKLHMMKEKWWRGNGCPS,soluble
6,MAIEIKLETPRQEAVLRLIDLSNAYMASLYPAESNHLVDIGALEKDNVSFFVARHDGRVVGCGALVEAGDGTAEVKRMFVDPEARGLRIGKLIMDTLVARGTELGLSAIRLETGISQPEAIGLYRKEGFVEIEAFAPYKPDPLSLFMERAL,not soluble
7,MKEKIPFYNEKEFHDMVKKTKKGTFSGWYIINKNNNSVEFSGSFNRQFKLNKPVIPVNTEYVTRKEFNEYKDSNDQRLTKIETELKSQGQRIQVVEDKVDRLTEVVMVQSQQIKTQGEAMNARMDRFESLVLKSLESIGNTLTDFGKRLDVIETRLDKIDPPK,soluble
8,SKIVKIIGREIIDSRGNPTVEAEVHLEGGFVGMAAAPSGASTGSREALELRDGDKSRFLGKGVTKAVAAVNGPIAQALIGKDAKDQAGIDKIMIDLDGTENKSKFGANAILAVSLANAKAAAAAKGMPLYEHIAELNGTPGKYSMPVPMMNIINGGEHADNNVDIQEFMIQPVGAKTVKEAIRMGSEVFHHLAKVLKAKGMNTAVGDEGGYAPNLGSNAEALAVIAEAVKAAGYELGKDITLAMDCAASEFYKDGKYVLAGEGNKAFTSEEFTHFLEELTKQYPIVSIEDGLDESDWDGFAYQTKVLGDKIQLVGDDLFVTNTKILKEGIEKGIANSILIKFNQIGSLTETLAAIKMAKDAGYTAVISHRSGETEDATIADLAVGTAAGQIKTGSMSRSDRVAKYNQLIRIEEALGEKAPYNGRKEIKGQA,soluble
9,MPIADTVTLNSGYEMPVIGYGTWQLPKNLAAERVRDALEAGYRHIDSALSFKNQEEVAAGIKDWCKIRKVRREELFLSSKIWNTYHSRNRCMQQIDEMLEIFETTYMDLIVIHWPFGWAEDEPPGERGLWPRGANGKMRYSDVDYLETWKALEDAHRSGKIRSIGLANFNIGQVEQVWTKGLIKPAVLQVEMNPFLDQEEIRQFCREKGIILTAFMLTGNPGSALYRKHEDPNLLYNETLQSIAKGHGKSVVQVLVRWAIDLRTTALVKSSESKRIRQNINIFKFRLTSQEIARIKALNIDFRILNPLLGNYDHPYFPWPHVQEEQLPQKVEEPDPENL,not soluble
10,MMPRMGPPAAARQDNPLHVSFRNPQWPPNFINKDNVLDYFCNQANAFYEMNSCNQQIRMQNIVNRTVEECLRTMPGIQYVLWYSQPPLFIICKQRRNNVTNVSPIAYYYVINGSVHQAPDMYSLVQSRLLGALEPLRNAFGEVTNYSRYNTAKGYYWEFKNKPNVKKREEEKKEDEEEKLEDRSTNFQKTRTMMLLNQLFSEMPAEDALEREEKEEVEEEEEETLKTEEPTTSTDEPKFAEPTARTTSKQ,not soluble
11,MAHHHHHHMSVVISTSLGSLLINLRFVDCPKASFNFLALCASSYYDGCRFHRLVPETFVLTGDPTGTGKGGESVFVHHQDIKQRYFEDEGMGNALHDRRGVVSMAHKGNKPDTNASQFFILFKPCPSLDSKHTAFGVVDFGWNDGESERTLKRVEELEADGSYNVLDVEARILSTTVLYNPFAEGHIKLNV,not soluble
12,MAHHHHHHMGRKKRKLNIDLKPFCYYCDREFDDEKILIQHQKAKHFKCLHCNRKLDMANGLVVHMMQVHKTNLKSVPNALPKRNDPELVIRGMNGVPTDIIEENLIKLKQKLGDKNIKRQQRVNWAQVTMAPTMEQFLKQAQMGNFSFPGFNSPVLPTNNNILTNTLDINNKSTLPNIPLYIPNTTSNINNINNINNLLQQPIGNNIIYPPKNSTLLNMPIPPINKNNINNHVVTNPNTFTPSNIPPNIAHKYSANINLLPTNINQHNPMYMPPGLYPPPIPPLNHPSIPPTHIPSSTYPTKMTPIQQKRPSTKWDVPEPSEGDPSILKHNKEDSTENKNEEPHKVSQDDDLKQNEQKDNQEKNHTQNCE,not soluble
13,MGSDKIHHHHHHMFLKNCWYVAAWSHEIDRTLQPQTFLGENVVLYRKQDGTPVALEDACPHRKLPLSDGALQGDTVECGYHGLTFDCAGACVAAPTQKDAIPKRATVKSYPVVDRYRFTWIWMGDPAEADPDLIFPIPNFDDPTWGKTDGGVLDIDCNYLWVVDNLLDPSHVAWVHVTSFAGGGTDGAPLQVDKTEHGVQVTRWIFGEPPSPYYENLLAFQGPCDRLQHYEMTRPAMATNMSIYTPPGTGGYGRSPVENTFINISYNFMTPITEDKTRYFWFQHRNSEPDNVEMSETMNKGAVMAFHEDKAILEKVHTGMKHAVTPHIDLGLDAGAKTFRLGLQKAIETENA,not soluble
14,MNTLPDTHVREASGCPSPITIWQTLLTRLLDQHYGLTLNDTPFADERVIEQHIEAGISLCDAVNFLVEKYALVRTDQPGFSAGAPSQLINSIDILRARRATGLMTRDNYRTVNNITRGKHPEAKQ,not soluble
15,MNQAIQFPDREEWDENKKCVCFPALVNGMQLTCAISGESLAYRFTGDTPEQWLASFRQHRWDLEEEAENLIQEQSEDDQGWVWLP,not soluble
16,MYNISFTPDRPLTYHLEDDQSLARLSLVPGRGGLVTEWTVQGQPILYFDRERFQDPSLSVRGGIPILFPICGNLPQDQFNHAGKSYRLKQHGFARDLPWEVIGQQTQDNARLDLRLSHNDATLEAFPFAFELVFSYQLQGHSLRIEQRIANLGDQRMPFSLGFHPYFFCREKLGITLAIPANDYLDQKTGDCHGYDGQLNLTSPELDLAFTQISQPRAHFIDPDRNLKIEVSFSELYQTLVLWTVAGKDYLCLEPLEHHHHHH,not soluble
17,MTKMSITVNQTVLHQLVKNVDGDSIKMESVLRDELLSITPEVEQMMLQLHQSYQNKAKAFGVFQEKSIFAQHLNRLLEQEIEFLGFSQYSTKLLADELGKYNFAESGTLILCQYNFLATDYLFIALLDSRHSMLVDEHLDIRRTEYLDITQFDIAARINLTDLQVNANSNRYLTFIKGRVGRKISDFFMDFLGAEEGLNPQVQNQCLLQAVSDYCDQGELNKEQTQAVKKQVFEYCKGQLSNGNNIELRELSDSLPTLNEQPFVVFTEKQNYGLEESIPPIRSTLKSLTKFSGSGKGVTLSFDAELLNTRIQWDPMTDTLTIKGLPPNLKDQLQKALKSENLEHHHHHH,soluble
18,NFNSQNGVNKDEKDHLIERLYREISGLKAQLENMKTESQRVVLQLKGHVSELEADLAEQQHLRQQAADDCEFLRAELDELRRQREDTEKAQRSLSEIERKAQANEQRYSKLKEKYSELVQ,soluble
19,GVWRQYASRALQELGAGKRAIHDVADLTRGSLRIAVTPTFTSYFIGPLMADFYARYPSITLQLQEMSQEKIEDMLCRDELDVGIAFAPVHSPELEAIPLLTESLALVVAQHHPLAVHEQVALSRLHDEKLVLLSAEFATREQIDHYCEKAGLHPQVVIEANSISAVLELIRRTSLSTLLPAAIATQHDGLKAISLAPPLLERTAVLLRRKNSWQTAAAKAFLHMALDKCAVVGGNESR,soluble
20,MTIDCHEDRRVLLVPHTGRPQNVASAALAAELLDDSGVGVRVLVPAEDTTVATHPVLGQFERVSHSPQATQSVDLVLVLGGDGTFLRAADLAHGADLPVLGINLGHVGFLAEWEKDSLDEAVRRVTKGSFRIEERMTLDVSVYDSNGTAIGRGWALNEVSIENSNRSGVLDATLEIDSRPVSSFGCDGIIVSTPTGSTAYAFSAGGPVLWPELDAILVVPNNAHALFTKPLVVSPRSSVAVESHPSAFPATAVMDGFRSISVPPGARVEVKRGSRSIKWVRLDDIPFTDRLVTKLRLPVEGWRGPKNMIPQINPHSALEHHHHHH,soluble
21,MISVFDIFKVGIGPSSSHTVGPMKAAKQFVDELSEHKLLAKTDRLVADVYGSLSLTGRGHSTDIAIVMGLMGYLPDNVDIERIDSVIQQVKQEHKLVLAEANPAETKIIDFDFYNDMPFHSTFLARHENGMTLKAFAGETLLYEKTFYSIGGGFIVDDEHFEQ,not soluble
22,YTPPGRLGDESSGPRTDPRFSPAMVEALATFGLDAVAAAPPVSASDDLPTVLAAVGASHDGFQAVYDSIALDLPTDRDDVETSTETILGVDGNEITLHVFRPAGVEGVLPGLVYTHGGGMTILTTDNRVHRRWCTDLAAAGSVVVMVDFRNAWTAEGHHPFPSGVEDCLAAVLWVDEHRESLGLSGVVVQGESGGGNLAIATTLLAKRRGRLDAIDGVYASIPYISGGYAWDHERRLTELPSLVENDGYFIENGGMALLVRAYDPTGEHAEDPIAWPYFASEDELRGLPPFVVAVNELDPLRDEGIAFARRLARAGVDVAARVNIGLVHGADVIFRHWLPAALESTVRDVAGFAADRARLR,soluble
23,GQQKNMENKTLNENIPEMIISLEKEALASTDPMAFVELSDTDVIYFDPSLETKIEGLEQLRTYYKGMQLPPADHFDMIRPVVQVAQNIAVLTFNLDSYLSDKVIKWNCTEVYRRNPDNQWKIIQTHWSYVKPLD,soluble
